# Assay results as given in US20160015827A1 (BIOALLIANCE C V, published 2016).
# Numbering of substitutions follows the chain as printed. In names and notes the source's numbering stands.
# B1: hLK26-T155C-IgG4p-Tap18Hr1 (antibody, name in EU numbering)
# heavy: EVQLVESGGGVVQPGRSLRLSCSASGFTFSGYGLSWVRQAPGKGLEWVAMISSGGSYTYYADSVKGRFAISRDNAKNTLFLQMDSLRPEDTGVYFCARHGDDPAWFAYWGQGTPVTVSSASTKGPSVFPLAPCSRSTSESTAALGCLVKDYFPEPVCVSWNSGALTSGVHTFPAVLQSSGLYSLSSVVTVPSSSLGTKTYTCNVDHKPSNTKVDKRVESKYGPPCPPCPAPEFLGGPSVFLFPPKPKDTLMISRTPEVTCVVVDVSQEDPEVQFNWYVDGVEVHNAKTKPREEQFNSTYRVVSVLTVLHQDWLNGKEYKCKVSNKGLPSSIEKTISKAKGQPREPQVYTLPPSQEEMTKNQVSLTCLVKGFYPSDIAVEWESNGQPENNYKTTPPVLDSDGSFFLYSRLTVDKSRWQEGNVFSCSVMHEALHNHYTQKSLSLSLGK
# light: DIQLTQSPSSLSASVGDRVTITCSVSSSISSNNLHWYQQKPGKAPKPWIYGTSNLASGVPSRFSGSGSGTDYTFTISSLQPEDIATYYCQQWSSYPYMYTFGQGTKVEIKRTVAAPSVFIFPPSDEQLKSGTASVVCLLNNFYPREAKVQWKVDNALQSGNSQESVTEQDSKDSTYSLSSTLTLSKADYEKHKVYACEVTHQGLSSPVTKSFNRGEC
# modifications: Tap18Hr1 linker-drug on the introduced Cys 155 (EU numbering)
# notes: Site-specific ADC
# B2: hLK26-L201C-IgG4p-Tap18Hr1 (antibody, name in EU numbering)
# heavy: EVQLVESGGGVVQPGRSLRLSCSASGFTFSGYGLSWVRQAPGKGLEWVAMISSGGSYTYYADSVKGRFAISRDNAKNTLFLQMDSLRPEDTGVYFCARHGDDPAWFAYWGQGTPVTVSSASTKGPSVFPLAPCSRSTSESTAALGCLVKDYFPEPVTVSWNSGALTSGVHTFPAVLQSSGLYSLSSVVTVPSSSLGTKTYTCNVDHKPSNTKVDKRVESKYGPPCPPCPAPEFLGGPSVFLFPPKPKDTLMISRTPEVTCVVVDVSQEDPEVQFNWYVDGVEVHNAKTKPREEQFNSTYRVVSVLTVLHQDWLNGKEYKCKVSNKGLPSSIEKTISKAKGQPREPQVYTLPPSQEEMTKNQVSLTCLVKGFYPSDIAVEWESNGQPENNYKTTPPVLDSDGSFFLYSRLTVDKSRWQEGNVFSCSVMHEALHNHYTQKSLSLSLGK
# light: B1 light with L204C
# modifications: Tap18Hr1 linker-drug on the introduced Cys 201 (EU numbering)
# notes: Site-specific ADC with kappa light chain mutant
# B3: hLK26-S442C-IgG4p-Tap18Hr1 (antibody, name in EU numbering)
# heavy: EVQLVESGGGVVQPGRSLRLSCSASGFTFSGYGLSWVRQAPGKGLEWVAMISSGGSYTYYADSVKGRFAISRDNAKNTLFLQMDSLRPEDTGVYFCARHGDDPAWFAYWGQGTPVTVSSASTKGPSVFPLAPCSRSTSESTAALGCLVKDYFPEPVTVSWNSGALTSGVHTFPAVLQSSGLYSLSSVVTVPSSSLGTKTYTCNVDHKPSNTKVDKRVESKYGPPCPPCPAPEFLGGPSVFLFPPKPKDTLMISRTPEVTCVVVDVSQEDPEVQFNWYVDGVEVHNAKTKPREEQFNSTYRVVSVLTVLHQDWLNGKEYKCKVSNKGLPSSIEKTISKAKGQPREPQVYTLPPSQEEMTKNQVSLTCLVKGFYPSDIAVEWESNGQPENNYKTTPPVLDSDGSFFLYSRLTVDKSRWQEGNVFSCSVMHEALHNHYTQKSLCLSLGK
# light: B1 light
# modifications: Tap18Hr1 linker-drug on the introduced Cys 442 (EU numbering)
# notes: Site-specific ADC
# B4: hLK26-T199C-IgG4p-Tap18Hr1 (antibody, name in EU numbering)
# heavy: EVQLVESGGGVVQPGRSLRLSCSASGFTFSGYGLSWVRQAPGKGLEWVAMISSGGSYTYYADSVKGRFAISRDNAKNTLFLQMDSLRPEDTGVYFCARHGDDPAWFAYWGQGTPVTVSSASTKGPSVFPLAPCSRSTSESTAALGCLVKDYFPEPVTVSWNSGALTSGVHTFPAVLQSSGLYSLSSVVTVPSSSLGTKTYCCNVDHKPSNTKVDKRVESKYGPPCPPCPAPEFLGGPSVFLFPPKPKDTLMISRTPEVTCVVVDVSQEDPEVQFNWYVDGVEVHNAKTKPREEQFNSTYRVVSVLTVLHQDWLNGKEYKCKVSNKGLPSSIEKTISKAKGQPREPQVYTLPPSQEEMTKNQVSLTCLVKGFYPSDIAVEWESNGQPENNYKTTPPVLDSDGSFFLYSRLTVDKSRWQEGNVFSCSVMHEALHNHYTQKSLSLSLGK
# light: B1 light
# modifications: Tap18Hr1 linker-drug on the introduced Cys 199 (EU numbering)
# notes: Site-specific ADC
# B5: hLK26-S442C-IgG1-Tap18Hr1 (antibody, name in EU numbering)
# heavy: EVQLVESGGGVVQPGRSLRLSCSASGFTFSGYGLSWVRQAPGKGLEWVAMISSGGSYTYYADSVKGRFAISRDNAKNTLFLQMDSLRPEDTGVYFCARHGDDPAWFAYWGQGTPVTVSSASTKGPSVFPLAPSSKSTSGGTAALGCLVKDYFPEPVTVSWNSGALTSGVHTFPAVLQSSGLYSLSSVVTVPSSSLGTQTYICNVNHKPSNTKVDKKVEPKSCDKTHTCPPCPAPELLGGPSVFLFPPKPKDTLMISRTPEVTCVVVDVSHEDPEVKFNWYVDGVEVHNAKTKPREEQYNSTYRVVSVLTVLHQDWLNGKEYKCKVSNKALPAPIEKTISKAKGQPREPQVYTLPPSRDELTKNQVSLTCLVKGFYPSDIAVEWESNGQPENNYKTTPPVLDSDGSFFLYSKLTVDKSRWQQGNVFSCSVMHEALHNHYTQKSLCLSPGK
# light: B1 light
# modifications: Tap18Hr1 linker-drug on the introduced Cys 442 (EU numbering)
# notes: Site-specific ADC
# B6: hLK26-T155C-IgG1-Tap18Hr1 (antibody, name in EU numbering)
# heavy: not shown
# light: B1 light
# modifications: Tap18Hr1 linker-drug on the introduced Cys 155 (EU numbering)
# notes: Site-specific ADC
# B7: hLK26-T206C-IgG1-Tap18Hr1 (antibody, name in EU numbering)
# heavy: not shown
# light: B1 light with T209C
# modifications: Tap18Hr1 linker-drug on the introduced Cys 206 (EU numbering)
# notes: as for B2
# B8: hLK26-IgG1 (antibody)
# heavy: not shown
# light: B1 light
# notes: Humanized anti-FRA antibody, human IgG1 / kappa, unconjugated; also called naked Ab hLK26-IgG1; unconjugated hLK26-IgG1
# Molecular target: T1, human folate receptor alpha (FRA) (human, UniProt P15328 25-234)
# T1 construct: In the assays FRA is the endogenous protein on FRA-expressing human cancer cell lines (SK-OV-3, OVCAR-3, OVCAR-3B, NCI-H2110, NCI-H292); also called human FRA
# T1 sequence (P15328 25-234 limits assumed): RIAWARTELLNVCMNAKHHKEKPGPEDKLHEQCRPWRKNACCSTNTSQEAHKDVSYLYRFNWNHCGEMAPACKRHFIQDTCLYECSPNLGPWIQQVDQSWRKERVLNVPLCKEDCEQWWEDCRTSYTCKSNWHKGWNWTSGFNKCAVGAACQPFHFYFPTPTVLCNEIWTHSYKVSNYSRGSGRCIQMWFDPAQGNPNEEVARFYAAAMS
# Assay: flow cytometry on SK-OV-3 cells, 1.1 µg/mL
# Protocol: (§1) 1×10⁵ cells were seeded per well in a v-bottomed 96-well plate and incubated with 50 μl of the unconjugated Abs or the ADCs at titrated concentrations or isotype control antibody human IgG at 10 μg/mL. After 60 minutes of incubation at 4° C., cells were washed once with 200 μl FACS buffer (1×PBS containing 1% FBS), stained with 50 μl of 1 μg/ml goat F(ab′)2-anti-human IgG (H+L)-RPE or goat anti-human IgG-RPE (SOUTHERN BIOTECH®, Cat. No. 2043-09 or 2040-09) in FACS buffer and then incubated at 4° C. for 30 min Cells were washed once with FACS buffer and analyzed by flow cytometer (BD LSR, BD Life Sciences).
# (§2) The binding activities of site-specific conjugates of hLK26-Cys variants-Tap18Hr1 were evaluated by flow cytometric analysis in ovarian cancer SK-OV-3 and OVCAR-3B (Table 9-10) and lung cancer NCI-H2110 and NCI-H292 (Table 11-12) cells. The Mean fluorescence intensity (MFI) values in the tables represent binding activity of ADCs at tested concentration. […] The IgG4p variants-Tap18Hr1 conjugates also bind to all the FRA positive cancer cells tested here, but the fluorescent intensities were generally lower than those observed with IgG1 variants. This decrease in binding activity is likely attributed to IgG4 isotype rather than cysteine mutation. Overall, the site-specific conjugated hLK26-Cys variants retain antigen reactivity to the ovarian and lung cancer cells tested.
row,Binder,MFI [MFI]
1,B1,1890
2,B2,1000
3,B3,1880
4,B4,966
5,B5,2080
6,B6,2470
7,B7,1270

# Molecular target: T1, human folate receptor alpha (FRA)
# Assay: flow cytometry on OVCAR-3B cells, 1.1 µg/mL
# Protocol: as §1, §2
row,Binder,MFI [MFI]
1,B1,806
2,B3,769
3,B5,967
4,B6,1060
5,B8,1150

# Molecular target: T1, human folate receptor alpha (FRA)
# Assay: flow cytometry on NCI-H292 cells, 3.3 µg/mL
# Protocol: as §1, §2
row,Binder,MFI [MFI]
1,B1,1180
2,B3,1090
3,B5,1280
4,B6,1450
5,B8,1460

# Molecular target: T1, human folate receptor alpha (FRA)
# Assay: flow cytometry on NCI-H2110 cells, 3.3 µg/mL
# Protocol: as §1, §2
row,Binder,MFI [MFI]
1,B1,494
2,B2,890
3,B3,479
4,B4,898
5,B5,605
6,B6,649
7,B7,1180
